Experimental data taken from patent publication US10450368.

How the values were obtained:
[1] = target: BG505 SOSIP.664 gp140 trimer (HIV-1); test: negative stain EM
CH0505_CON D7gp120/293i = test: ELISA
CH505.M10D8gp120 = test: ELISA
CH505.M11D8gp120/293F = test: ELISA
CH505.M19D8gp120 = test: ELISA
CH505.M21D8gp120/293F = test: ELISA
CH505.M5D8gp120293F = test: ELISA
CH505.M7D8gp120/293F = test: ELISA
CH505.M9D8gp120/293F = test: ELISA
[2] = target: CH505.TF mutant gp120 M20 (HIV-1); test: ELISA
[3] = target: CH505.TF mutant gp120 M6 (HIV-1); test: ELISA
[4] = target: CH505.TF mutant gp120 M8 (HIV-1); test: ELISA
CH505.w30.12D8gp120 = test: ELISA
CH505w020.14D8gp120 = test: ELISA
CH505w030.20D8gp120/293F = test: ELISA
CH505w136.B18D8gp120 = test: ELISA
Centromere B [5] = target: Centromere B (UniProt P07199); test: AtheNA, Ab 25 ug/ml
Histones [6] = test: AtheNA, Ab 25 ug/ml
Jo-1 [7] = target: Jo-1 (UniProt P12081); test: AtheNA, Ab 25 ug/ml
RNP (ribonucleoprotein) [8] = test: AtheNA, Ab 25 ug/ml
SSA [9] = test: AtheNA, Ab 25 ug/ml
SSB [10] = target: SSB (UniProt P05455); test: AtheNA, Ab 25 ug/ml
Scl-70 [11] = target: Scl-70 (UniProt P11387); test: AtheNA, Ab 25 ug/ml
Sm (Smith antigen) [12] = test: AtheNA, Ab 25 ug/ml
Centromere B [13] = target: Centromere B (UniProt P07199); test: AtheNA, Ab 50 ug/ml
Histones [14] = test: AtheNA, Ab 50 ug/ml
RNP (ribonucleoprotein) [15] = test: AtheNA, Ab 50 ug/ml
Sm (Smith antigen) [16] = test: AtheNA, Ab 50 ug/ml
Centromere B [17] = target: Centromere B (UniProt P07199); test: AtheNA, Ab 12.5 ug/ml
Histones [18] = test: AtheNA, Ab 12.5 ug/ml
Jo-1 [19] = target: Jo-1 (UniProt P12081); test: AtheNA, Ab 12.5 ug/ml
RNP (ribonucleoprotein) [20] = test: AtheNA, Ab 12.5 ug/ml
SSA [21] = test: AtheNA, Ab 12.5 ug/ml
SSB [22] = target: SSB (UniProt P05455); test: AtheNA, Ab 12.5 ug/ml
Scl-70 [23] = target: Scl-70 (UniProt P11387); test: AtheNA, Ab 12.5 ug/ml
Sm (Smith antigen) [24] = test: AtheNA, Ab 12.5 ug/ml
Centromere B [25] = target: Centromere B (UniProt P07199); test: AtheNA, Ab 6.25 ug/ml
Histones [26] = test: AtheNA, Ab 6.25 ug/ml
Jo-1 [27] = target: Jo-1 (UniProt P12081); test: AtheNA, Ab 6.25 ug/ml
RNP (ribonucleoprotein) [28] = test: AtheNA, Ab 6.25 ug/ml
SSA [29] = test: AtheNA, Ab 6.25 ug/ml
SSB [30] = target: SSB (UniProt P05455); test: AtheNA, Ab 6.25 ug/ml
Scl-70 [31] = target: Scl-70 (UniProt P11387); test: AtheNA, Ab 6.25 ug/ml
Sm (Smith antigen) [32] = test: AtheNA, Ab 6.25 ug/ml
Centromere B [33] = target: Centromere B (UniProt P07199); test: AtheNA, Ab 25 ug/ml; remark: listed apart in the source
Histones [34] = test: AtheNA, Ab 25 ug/ml; remark: listed apart in the source
Jo-1 [35] = target: Jo-1 (UniProt P12081); test: AtheNA, Ab 25 ug/ml; remark: listed apart in the source
RNP (ribonucleoprotein) [36] = test: AtheNA, Ab 25 ug/ml; remark: listed apart in the source
SSA [37] = test: AtheNA, Ab 25 ug/ml; remark: listed apart in the source
SSB [38] = target: SSB (UniProt P05455); test: AtheNA, Ab 25 ug/ml; remark: listed apart in the source
Scl-70 [39] = target: Scl-70 (UniProt P11387); test: AtheNA, Ab 25 ug/ml; remark: listed apart in the source
Sm (Smith antigen) [40] = test: AtheNA, Ab 25 ug/ml; remark: listed apart in the source
Centromere B [41] = target: Centromere B (UniProt P07199); test: AtheNA, Ab 50 ug/ml; remark: listed apart in the source
Histones [42] = test: AtheNA, Ab 50 ug/ml; remark: listed apart in the source
Jo-1 [43] = target: Jo-1 (UniProt P12081); test: AtheNA, Ab 50 ug/ml
RNP (ribonucleoprotein) [44] = test: AtheNA, Ab 50 ug/ml; remark: listed apart in the source
SSA [45] = test: AtheNA, Ab 50 ug/ml
SSB [46] = target: SSB (UniProt P05455); test: AtheNA, Ab 50 ug/ml
Scl-70 [47] = target: Scl-70 (UniProt P11387); test: AtheNA, Ab 50 ug/ml
Sm (Smith antigen) [48] = test: AtheNA, Ab 50 ug/ml; remark: listed apart in the source

Chain of SSB (P05455 whole entry): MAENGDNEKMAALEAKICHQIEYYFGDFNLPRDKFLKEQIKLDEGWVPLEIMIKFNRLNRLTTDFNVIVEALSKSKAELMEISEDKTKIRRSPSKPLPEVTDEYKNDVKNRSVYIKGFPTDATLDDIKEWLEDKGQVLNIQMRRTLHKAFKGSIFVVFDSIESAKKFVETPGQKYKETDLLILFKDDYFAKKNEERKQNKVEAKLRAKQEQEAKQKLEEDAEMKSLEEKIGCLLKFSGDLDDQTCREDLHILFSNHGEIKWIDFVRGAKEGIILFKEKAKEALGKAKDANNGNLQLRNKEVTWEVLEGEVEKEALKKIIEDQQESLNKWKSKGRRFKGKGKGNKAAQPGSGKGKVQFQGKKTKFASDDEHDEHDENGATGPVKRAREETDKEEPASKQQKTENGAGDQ
Chain of Centromere B (P07199 whole entry): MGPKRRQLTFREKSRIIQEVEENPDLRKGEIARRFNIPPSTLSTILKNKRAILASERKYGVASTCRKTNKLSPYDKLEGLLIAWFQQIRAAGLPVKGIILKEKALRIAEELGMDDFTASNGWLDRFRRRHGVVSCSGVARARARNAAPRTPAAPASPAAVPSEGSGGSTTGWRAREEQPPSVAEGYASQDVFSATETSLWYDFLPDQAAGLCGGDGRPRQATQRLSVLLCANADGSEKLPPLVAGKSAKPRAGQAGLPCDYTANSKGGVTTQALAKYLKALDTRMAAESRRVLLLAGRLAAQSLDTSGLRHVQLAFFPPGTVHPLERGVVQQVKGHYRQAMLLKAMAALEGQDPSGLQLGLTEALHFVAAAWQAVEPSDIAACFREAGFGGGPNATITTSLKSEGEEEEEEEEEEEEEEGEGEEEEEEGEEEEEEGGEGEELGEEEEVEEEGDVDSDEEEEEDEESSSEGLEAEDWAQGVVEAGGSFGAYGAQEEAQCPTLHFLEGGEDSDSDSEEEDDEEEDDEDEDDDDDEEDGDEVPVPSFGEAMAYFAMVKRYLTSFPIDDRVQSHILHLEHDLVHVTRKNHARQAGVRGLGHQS
Chain of Scl-70 (P11387 whole entry): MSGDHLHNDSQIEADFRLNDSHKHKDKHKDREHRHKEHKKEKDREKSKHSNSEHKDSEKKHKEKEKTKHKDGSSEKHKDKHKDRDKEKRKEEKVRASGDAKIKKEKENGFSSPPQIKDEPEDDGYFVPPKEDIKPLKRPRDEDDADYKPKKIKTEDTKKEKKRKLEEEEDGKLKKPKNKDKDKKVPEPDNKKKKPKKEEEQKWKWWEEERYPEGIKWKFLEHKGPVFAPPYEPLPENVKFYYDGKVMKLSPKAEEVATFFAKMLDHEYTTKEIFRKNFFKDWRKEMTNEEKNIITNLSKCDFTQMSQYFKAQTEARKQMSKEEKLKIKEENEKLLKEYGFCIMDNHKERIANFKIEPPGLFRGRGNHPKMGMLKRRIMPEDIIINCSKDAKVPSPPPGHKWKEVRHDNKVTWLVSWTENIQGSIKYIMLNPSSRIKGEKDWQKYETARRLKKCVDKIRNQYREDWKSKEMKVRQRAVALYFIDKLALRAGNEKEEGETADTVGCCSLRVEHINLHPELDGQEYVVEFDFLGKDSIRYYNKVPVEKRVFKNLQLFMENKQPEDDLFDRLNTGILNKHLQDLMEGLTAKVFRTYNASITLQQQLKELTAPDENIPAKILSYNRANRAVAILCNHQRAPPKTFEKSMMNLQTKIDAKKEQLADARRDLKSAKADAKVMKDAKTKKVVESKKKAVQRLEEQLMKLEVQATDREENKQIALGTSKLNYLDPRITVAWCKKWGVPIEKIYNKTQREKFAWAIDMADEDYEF
Chain of Jo-1 (P12081 whole entry): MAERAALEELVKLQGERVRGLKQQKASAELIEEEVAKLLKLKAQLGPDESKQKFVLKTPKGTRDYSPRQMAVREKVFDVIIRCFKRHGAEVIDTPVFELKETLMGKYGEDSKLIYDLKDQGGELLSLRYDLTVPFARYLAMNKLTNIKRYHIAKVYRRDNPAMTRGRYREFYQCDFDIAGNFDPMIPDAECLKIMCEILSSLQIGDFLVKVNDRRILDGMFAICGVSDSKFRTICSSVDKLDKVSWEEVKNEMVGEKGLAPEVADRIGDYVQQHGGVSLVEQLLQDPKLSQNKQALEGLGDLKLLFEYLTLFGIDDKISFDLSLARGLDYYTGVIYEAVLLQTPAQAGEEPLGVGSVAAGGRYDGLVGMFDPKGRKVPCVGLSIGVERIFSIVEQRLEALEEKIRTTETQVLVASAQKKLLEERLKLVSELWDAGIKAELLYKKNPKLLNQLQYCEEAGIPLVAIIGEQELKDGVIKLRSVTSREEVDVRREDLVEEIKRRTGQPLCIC

Question: Which stoichiometry (Fabs per trimer) (Fabs per trimer) [1] does the source give for CH103 Fab here?
Answer: 3

Question: Which LogAUC (CH0505_CON D7gp120/293i) does the source give for CH235 IA2 (antibody) here?
Answer: 4.77

Question: And the LogAUC (CH505.M10D8gp120)?
Answer: 0.43

Question: What about the LogAUC (CH505.M11D8gp120/293F) of the same substance?
Answer: 0

Question: What about the LogAUC (CH505.M19D8gp120) of the same substance?
Answer: 0

Question: And the LogAUC (CH505.M21D8gp120/293F)?
Answer: 0

Question: What about the LogAUC (CH505.M5D8gp120293F) of the same substance?
Answer: 6.95

Question: What about the LogAUC (CH505.M7D8gp120/293F) of the same substance?
Answer: 0

Question: And the LogAUC (CH505.M9D8gp120/293F)?
Answer: 0

Question: And the LogAUC [2]?
Answer: 0

Question: What about the LogAUC [3] of the same substance?
Answer: 1.22

Question: What about the LogAUC [4] of the same substance?
Answer: 0

Question: And the LogAUC (CH505.w30.12D8gp120)?
Answer: 0

Question: And the LogAUC (CH505w020.14D8gp120)?
Answer: 1.22

Question: What about the LogAUC (CH505w030.20D8gp120/293F) of the same substance?
Answer: 0.53

Question: And the LogAUC (CH505w136.B18D8gp120)?
Answer: 0

Question: What about the AtheNA signal (relative luminescence units) (Centromere B [5]) of the same substance?
Answer: 228

Question: And the AtheNA signal (relative luminescence units) (Histones [6])?
Answer: 302

Question: What about the AtheNA signal (relative luminescence units) (Jo-1 [7]) of the same substance?
Answer: 26

Question: And the AtheNA signal (relative luminescence units) (RNP (ribonucleoprotein) [8])?
Answer: 93

Question: What about the AtheNA signal (relative luminescence units) (SSA [9]) of the same substance?
Answer: 43

Question: And the AtheNA signal (relative luminescence units) (SSB [10])?
Answer: 36

Question: And the AtheNA signal (relative luminescence units) (Scl-70 [11])?
Answer: 49

Question: What about the AtheNA signal (relative luminescence units) (Sm (Smith antigen) [12]) of the same substance?
Answer: 256

Question: What about the AtheNA signal (relative luminescence units) (Centromere B [13]) of the same substance?
Answer: 256

Question: And the AtheNA signal (relative luminescence units) (Histones [14])?
Answer: 371

Question: What about the AtheNA signal (relative luminescence units) (RNP (ribonucleoprotein) [15]) of the same substance?
Answer: 101

Question: What about the AtheNA signal (relative luminescence units) (Sm (Smith antigen) [16]) of the same substance?
Answer: 259

Question: And the AtheNA signal (relative luminescence units) (Centromere B [17])?
Answer: 225

Question: What about the AtheNA signal (relative luminescence units) (Histones [18]) of the same substance?
Answer: 287

Question: And the AtheNA signal (relative luminescence units) (Jo-1 [19])?
Answer: 20

Question: And the AtheNA signal (relative luminescence units) (RNP (ribonucleoprotein) [20])?
Answer: 85

Question: And the AtheNA signal (relative luminescence units) (SSA [21])?
Answer: 34

Question: And the AtheNA signal (relative luminescence units) (SSB [22])?
Answer: 31

Question: What about the AtheNA signal (relative luminescence units) (Scl-70 [23]) of the same substance?
Answer: 44

Question: What about the AtheNA signal (relative luminescence units) (Sm (Smith antigen) [24]) of the same substance?
Answer: 279

Question: What about the AtheNA signal (relative luminescence units) (Centromere B [25]) of the same substance?
Answer: 183

Question: What about the AtheNA signal (relative luminescence units) (Histones [26]) of the same substance?
Answer: 207

Question: What about the AtheNA signal (relative luminescence units) (Jo-1 [27]) of the same substance?
Answer: 12

Question: And the AtheNA signal (relative luminescence units) (RNP (ribonucleoprotein) [28])?
Answer: 66

Question: What about the AtheNA signal (relative luminescence units) (SSA [29]) of the same substance?
Answer: 18

Question: What about the AtheNA signal (relative luminescence units) (SSB [30]) of the same substance?
Answer: 15

Question: And the AtheNA signal (relative luminescence units) (Scl-70 [31])?
Answer: 28

Question: What about the AtheNA signal (relative luminescence units) (Sm (Smith antigen) [32]) of the same substance?
Answer: 204

Question: For DH270IA1 (antibody), which AtheNA signal (Centromere B [33]) is on record?
Answer: 5

Question: And the AtheNA signal (Histones [34])?
Answer: 4

Question: And the AtheNA signal (Jo-1 [35])?
Answer: 3

Question: And the AtheNA signal (RNP (ribonucleoprotein) [36])?
Answer: 2

Question: And the AtheNA signal (SSA [37])?
Answer: 3

Question: And the AtheNA signal (SSB [38])?
Answer: 6

Question: And the AtheNA signal (Scl-70 [39])?
Answer: 1

Question: What about the AtheNA signal (Sm (Smith antigen) [40]) of the same substance?
Answer: 5

Question: What about the AtheNA signal (Centromere B [41]) of the same substance?
Answer: 10

Question: What about the AtheNA signal (Histones [42]) of the same substance?
Answer: 9

Question: What about the AtheNA signal (Jo-1 [43]) of the same substance?
Answer: 5

Question: And the AtheNA signal (RNP (ribonucleoprotein) [44])?
Answer: 2

Question: And the AtheNA signal (SSA [45])?
Answer: 5

Question: And the AtheNA signal (SSB [46])?
Answer: 6

Question: What about the AtheNA signal (Scl-70 [47]) of the same substance?
Answer: 4

Question: And the AtheNA signal (Sm (Smith antigen) [48])?
Answer: 5

Question: And the AtheNA signal (Centromere B [17])?
Answer: 3

Question: And the AtheNA signal (Histones [18])?
Answer: 4

Question: And the AtheNA signal (Jo-1 [19])?
Answer: 6

Question: What about the AtheNA signal (RNP (ribonucleoprotein) [20]) of the same substance?
Answer: 3

Question: And the AtheNA signal (SSA [21])?
Answer: 3

Question: And the AtheNA signal (SSB [22])?
Answer: 6

Question: What about the AtheNA signal (Scl-70 [23]) of the same substance?
Answer: 2

Question: What about the AtheNA signal (Sm (Smith antigen) [24]) of the same substance?
Answer: 5

Question: What about the AtheNA signal (Centromere B [25]) of the same substance?
Answer: 2

Question: What about the AtheNA signal (Histones [26]) of the same substance?
Answer: 2

Question: What about the AtheNA signal (Jo-1 [27]) of the same substance?
Answer: 5

Question: What about the AtheNA signal (RNP (ribonucleoprotein) [28]) of the same substance?
Answer: 2

Question: What about the AtheNA signal (SSA [29]) of the same substance?
Answer: 5

Question: What about the AtheNA signal (SSB [30]) of the same substance?
Answer: 1

Question: What about the AtheNA signal (Scl-70 [31]) of the same substance?
Answer: 2

Question: What about the AtheNA signal (Sm (Smith antigen) [32]) of the same substance?
Answer: 3
